Experiment [1] has as its target T1, Muscle fructose-1,6-bisphosphatase (FBP2), L190G mutant (Homo sapiens, UniProt O00757, L191G).
T1 construct: tag-free FBP2, expressed in E. coli
T1 sequence (O00757 2-339 L191G): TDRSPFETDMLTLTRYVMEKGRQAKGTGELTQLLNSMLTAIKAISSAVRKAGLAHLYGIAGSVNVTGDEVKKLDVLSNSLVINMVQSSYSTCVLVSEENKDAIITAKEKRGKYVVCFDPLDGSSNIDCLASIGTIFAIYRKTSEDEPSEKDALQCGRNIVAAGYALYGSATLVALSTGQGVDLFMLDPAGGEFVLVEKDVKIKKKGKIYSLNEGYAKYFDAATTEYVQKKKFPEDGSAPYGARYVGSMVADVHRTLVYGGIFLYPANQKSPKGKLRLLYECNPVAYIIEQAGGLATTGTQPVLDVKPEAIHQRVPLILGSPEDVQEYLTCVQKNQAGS
The experiment in a line: coupled enzyme activity assay, biphasic inhibition (second phase IC50 […]). Type of experiment: biochemical.

Experiment [2] deals with T2, Muscle fructose-1,6-bisphosphatase (FBP2), wild-type (Homo sapiens, UniProt O00757).
T2 construct: tag-free WT FBP2, expressed in E. coli
T2 sequence (O00757 2-339): T1 sequence (O00757 2-339 L191G) with G190L
As to the kind of experiment: coupled glucose 6-phosphate isomerase/glucose 6-phosphate dehydrogenase activity assay; AMP-induced tetramerization by sedimentation velocity ultracentrifugation. The format is biochemical.

For experiment [3], the target named is T3, Muscle fructose-1,6-bisphosphatase (FBP2), D187L mutant (Homo sapiens, UniProt O00757, D188L).
T3 construct: tag-free FBP2, expressed in E. coli
T3 sequence (O00757 2-339 D188L): T1 sequence (O00757 2-339 L191G) with D187L, G190L
As to the kind of experiment: coupled enzyme activity assay; oligomerization by sedimentation velocity ultracentrifugation. Type of experiment: biochemical.

The target of experiment [4] is human FBP2 D187L mutant (human). The experiment in a line: AUC; sedimentation velocity, laser interferometry, 42,000 rpm, 20°C, protein at 0.1, 0.5 and 1 mg/ml, without AMP; distribution of monomers, dimers and tetramers.
The target is the same in experiment [5]. As to the kind of experiment: AUC; sedimentation velocity, laser interferometry, 42,000 rpm, 20°C, protein at 0.5 mg/ml, with 120 μM AMP.
For experiment [6] the target is unchanged. The experiment in a line: AUC; sedimentation velocity, laser interferometry, 42,000 rpm, 20°C, protein at 0.5 mg/ml, with 5 mM AMP.
For experiment [7], the target named is human FBP2 L190G mutant (human). As to the kind of experiment: AUC; sedimentation velocity, laser interferometry, 42,000 rpm, 20°C, protein at 0.1, 0.5 and 1 mg/ml, without AMP; distribution of monomers, dimers and tetramers.
The target is the same in experiment [8]. As to the kind of experiment: AUC; sedimentation velocity, laser interferometry, 42,000 rpm, 20°C, protein at 0.5 mg/ml, with 0.16 μM AMP.
Experiment [9] shares this target. As to the kind of experiment: AUC; sedimentation velocity, laser interferometry, 42,000 rpm, 20°C, protein at 0.5 mg/ml, with 120 μM AMP.
Experiment [10] has the same target. The experiment in a line: AUC; sedimentation velocity, laser interferometry, 42,000 rpm, 20°C, protein at 0.5 mg/ml, with 5 mM AMP.

Substitutions are numbered along the chain they refer to.

The term IC50 denotes the midpoint of a concentration-inhibition curve. Low readings indicate greater potency in that assay, high ones weaker potency in that assay. As a reminder, the stoichiometry N is the number of molecules, sites or subunits per partner or assembly.

Take `Nc1ncnc2c1ncn2[C@@H]1O[C@H](COP(=O)(O)O)[C@@H](O)[C@H]1O` [AMP]: the IC50 in [1] stood at 84400 ± 6730 nM; in [2] it was 0.59 ± 0.01 µM; in [3], 1440 ± 60 nM.

For the compound human FBP2 D187L mutant (enzyme), in experiment [4], the percent dimeric was 83.4%. Also, the stoichiometry N in experiment [4] is 2. Moreover, the percent tetrameric was determined as 45% in experiment [5] and 35% in experiment [6].

The compound human FBP2 L190G mutant (enzyme) showed a percent dimeric in experiment [7] of 91.2%. For the same compound, the stoichiometry N in experiment [7], in experiment [8], in experiment [9] and in experiment [10] was 2 each time.

These data come from paper PMC5777782, “Dimeric and tetrameric forms of muscle fructose-1,6-bisphosphatase play different roles in the cell” (Oncotarget, 2017).
